{"source": "the supplement of paper PMC9732359", "note": "± gives the uncertainty stated by the source."}
{"experiment": "protein stability index of a GFP-peptide fusion (yeast GPS) (PSI 1-4); higher = more stable; sorted into four equal gates, so the index is relative within each strain", "details": "doa10∆", "outline": "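Each library plasmid carries Cherry plus GFP with a tiled 17-residue yeast protein peptide fused downstream, and the pooled library was carried in yeast. Mid-log cultures in leucine-free medium were sorted into four equal gates by GFP/Cherry ratio. Reads from Illumina sequencing of PCR-amplified plasmids from each gate were assigned to strains by barcodes. Per peptide, the protein stability index was computed as the summed products of gate read frequency and gate number.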"}
{"sequence": "ETSCDNYHPMNIDETSD [SMC4]", "protein stability index": "3.02 ± 0.064"}
{"sequence": "ETSGVTTALLKDEEIEK [MED8]", "protein stability index": "3.2 ± 0.097"}
{"sequence": "ETTTEEDSENPSDWQRN [ITC1]", "protein stability index": "3.31 ± 0.17"}
{"sequence": "EVALFSQKAKLMTFNAE [YLR335W/NUP2]", "protein stability index": "2.27 ± 0.08"}
{"sequence": "EVAQLGSLACDTADEAK [RPB4]", "protein stability index": "3.49 ± 0.15"}
{"sequence": "EVDYEDKDNPVDSRNET [SRB4]", "protein stability index": "3.46 ± 0.19"}
{"sequence": "EVEVSTRDLFDLEKDRA [RPO31]", "protein stability index": "3.07 ± 0.052"}
{"sequence": "EVIFSFEGTPPFSLTYV [YMR129W/POM152]", "protein stability index": "2.09 ± 0.051"}
{"sequence": "EVQCTSTPYLEILVEES [PCI8]", "protein stability index": "2.3 ± 0.067"}
{"sequence": "EVSTSTSMTGDANLLEE [SWI3]", "protein stability index": "3.09 ± 0.13"}
{"sequence": "EVTEEQAEATEWAEENA [RPS0A]", "protein stability index": "3.48 ± 0.13"}
{"sequence": "EVVEAVTVVDTPPVVVV [RPL3]", "protein stability index": "1.36 ± 0.05"}
{"sequence": "EVYEALKEVLYNDSATS [RPN2]", "protein stability index": "3.34 ± 0.18"}
{"sequence": "EVYMRYRNFMVNSYRLN [SWI3]", "protein stability index": "2.19 ± 0.062"}
{"sequence": "EVYTKTIEVLDEVITEG [POP7]", "protein stability index": "2.84 ± 0.069"}
{"sequence": "EWVKLHRLLQRALFRQL [RMP1]", "protein stability index": "1.47 ± 0.25"}
{"sequence": "EYEKRNHGGSLGKYDLT [SRP68]", "protein stability index": "2.81 ± 0.18"}
{"sequence": "EYIFEAHEIIKREEKAM [CDC53]", "protein stability index": "1.77 ± 0.039"}
{"sequence": "EYLFKPQLISDKFSPED [ARP7]", "protein stability index": "2.38 ± 0.053"}
{"sequence": "EYLKRVSVPVSGQKTNR [SIR3]", "protein stability index": "2.54 ± 0.1"}
{"sequence": "EYMKRHPTTIESLREIP [SEC65]", "protein stability index": "3.25 ± 0.082"}
{"sequence": "EYRDLYTNSVELRSLSK [YMR129W/POM152]", "protein stability index": "3.18 ± 0.082"}
{"sequence": "EYSDNFPVSLSQPSKKS [SIR4]", "protein stability index": "3.08 ± 0.045"}
{"sequence": "FAEENITHKLTKNDAGS [BRR2]", "protein stability index": "3.26 ± 0.084"}
{"sequence": "FAGEAGDTVQFAEYIQA [PRE1]", "protein stability index": "1.72 ± 0.089"}
{"sequence": "FAIRDDRDHINPDDLMK [RPT4]", "protein stability index": "2.65 ± 0.15"}
{"sequence": "FAQENSELAVATTSVMM [SRB6]", "protein stability index": "2.82 ± 0.13"}
{"sequence": "FAQGKRRYDRKQSGFGG [RPL42A]", "protein stability index": "3.6 ± 0.25"}
{"sequence": "FASNKKINDESSIDKKS [YML103C/NUP188]", "protein stability index": "2.5 ± 0.066"}
{"sequence": "FATTKAECISLICSIGL [ECM29]", "protein stability index": "1.5 ± 0.059"}
{"sequence": "FAVIYLCDIDEVSDFDE [DIB1]", "protein stability index": "1.46 ± 0.13"}
{"sequence": "FDEFMNVVIDEAVEIPV [SME1]", "protein stability index": "2.86 ± 0.056"}
{"sequence": "FDIYNRDRKLITDKGTV [YJL039C/NUP192]", "protein stability index": "3.18 ± 0.13"}
{"sequence": "FDPFQAVSRSMTDIWNT [ECM29]", "protein stability index": "2.81 ± 0.087"}
{"sequence": "FDQSTNVKVIMATNRAD [RPT3]", "protein stability index": "2.12 ± 0.054"}
{"sequence": "FDRHCNMVLENVKELWT [SMD2]", "protein stability index": "2.37 ± 0.081"}
{"sequence": "FDYMNRYWVQKERSDGK [CDC53]", "protein stability index": "2.26 ± 0.16"}
{"sequence": "FEDQVTNILTKVDINAD [PRP28]", "protein stability index": "3.19 ± 0.2"}
{"sequence": "FEEDEKNSDVWFLDHNY [RPN8]", "protein stability index": "2.7 ± 0.077"}
{"sequence": "FEGNALIRRLVRVGVLS [RPS9A]", "protein stability index": "2.44 ± 0.1"}
{"sequence": "FEGVTHRWGTKKLPRKT [RPL3]", "protein stability index": "3.31 ± 0.11"}
{"sequence": "FEIIDEASKKSAVKPRP [FAS1]", "protein stability index": "3.21 ± 0.13"}
{"sequence": "FEIQGVPPMKLAYSKIV [YMR129W/POM152]", "protein stability index": "1.59 ± 0.074"}
{"sequence": "FERFPSPSTSANVPSTA [RPN4]", "protein stability index": "1.81 ± 0.046"}
{"sequence": "FESLYNSNDSVFVGSGK [BRR2]", "protein stability index": "3.24 ± 0.098"}
{"sequence": "FFAAIRFVLSDDYSNLK [SMC3]", "protein stability index": "2.27 ± 0.091"}
{"sequence": "FGAKPEEQKSSDTSKPA [YJL041W/NSP1]", "protein stability index": "3.23 ± 0.083"}
{"sequence": "FGDTKSESKQLGNTSSV [SWI3]", "protein stability index": "3.54 ± 0.12"}
{"sequence": "FGHIMEDFQVLRLGRGI [YDL088C/ASM4]", "protein stability index": "3.04 ± 0.066"}
{"sequence": "FGRTLASVTKEILGTAQ [RPL12A]", "protein stability index": "1.46 ± 0.1"}
